Holding throughout (experiment): cell_activity
Series [1] deals with TALEN 103102 (synthetic). Conditions: pair with 103101; K562, 400 ng.
In series [2] the test system is TALEN 103110 (synthetic). Conditions: pair with 103109; K562, 400 ng.
Series [3] has as its system TALEN 103108 (synthetic). Particulars: pair with 103107; K562, 400 ng.
Series [4] relates to TALEN 103115 (synthetic). Particulars: pair with 103116; K562, 400 ng.
Series [5] has as its system TALEN 103118 (synthetic). Particulars: pair with 103117; K562, 400 ng.
Series [6] relates to TALEN 103117 (synthetic). Particulars: pair with 103118; K562, 400 ng.
Series [7] relates to TALEN 103112 (synthetic). Particulars: pair with 103111; K562, 400 ng.
For series [8], the system named is TALEN 103109 (synthetic). Conditions: pair with 103110; K562, 400 ng.
Series [9] deals with TALEN 103107 (synthetic). Particulars: pair with 103108; K562, 400 ng.
Series [10] deals with TALEN 103113 (synthetic). Particulars: pair with 103114; K562, 400 ng.
For series [11], the system named is TALEN 103114 (synthetic). Particulars: pair with 103113; K562, 400 ng.
Series [12] concerns TALEN 103111 (synthetic). Particulars: pair with 103112; K562, 400 ng.
The subject of series [13] is TALEN 103103 (synthetic). Conditions: pair with 103104; K562, 400 ng.
In series [14] the test system is TALEN 103106 (synthetic). Conditions: pair with 103105; K562, 400 ng.
Series [15] relates to TALEN 103116 (synthetic). Particulars: pair with 103115; K562, 400 ng.
Series [16] concerns TALEN 103105 (synthetic). Conditions: pair with 103106; K562, 400 ng.
For series [17], the system named is TALEN 103119 (synthetic). Particulars: pair with 103120 (not in Table 2B); K562, 400 ng.
Series [18] deals with TALEN 103104 (synthetic). Particulars: pair with 103103; K562, 400 ng.

Sequence “TTTTTCAGTGGGGGTGAATTC (double strand) [TALEN 103102 site]” had an activity in series [1] of 15.5 % indel.
Take “GTCACATGGTTCACACGGCAG (double strand) [TALEN 103108/103110 site]”: the activity in [2] was 8 % indel; in series [3], 4.2 % indel.
“GTATGCCTGCCGTGTGAACCA (double strand) [TALEN 103115 site]” yielded an activity in series [4] of 66.1 % indel.
“TTACCCCACTTAACTATCTTG (double strand) [TALEN 103118 site]” returned an activity in series [5] of 45.7 % indel.
With “GTGTGAACCATGTGACTTTGT (double strand) [TALEN 103117 site]”, the activity in series [6] was found to be 45.7 % indel.
Consider “CTGTGACAAAGTCACATGGTT (double strand) [TALEN 103112 site]”, for which the activity in [7] was found to be 26.5 % indel.
With “ATTCACCCCCACTGAAAAAGA (double strand) [TALEN 103107/103109 site]”, the results for the activity in series [8] and in [9] were 8 % indel and 4.2 % indel, respectively.
“ATGAGTATGCCTGCCGTGTGA (double strand) [TALEN 103113 site]” showed an activity in series [10] of 26.6 % indel.
On to “CTATCTTGGGCTGTGACAAAG (double strand) [TALEN 103114 site]”, for which the activity in series [11] was 26.6 % indel.
Regarding “CTGAAAAAGATGAGTATGCCT (double strand) [TALEN 103111 site]”, in [12], the activity was found to be 26.5 % indel.
The sequence “CTATCTCTTGTACTACACTGA (double strand) [TALEN 103103 site]” yielded an activity in series [13] of 44.9 % indel.
With “TTCACACGGCAGGCATACTCA (double strand) [TALEN 103106 site]”, in series [14], the activity turned out to be 14.2 % indel.
Turning to “TTAACTATCTTGGGCTGTGAC (double strand) [TALEN 103116 site]”, the activity in series [15] was 66.1 % indel.
The sequence “CTACACTGAATTCACCCCCAC (double strand) [TALEN 103105 site]” displayed an activity in series [16] of 14.2 % indel.
Sequence “ATGTGACTTTGTCACAGCCCA (double strand) [TALEN 103119 site]” showed an activity in [17] of 57.7 % indel.
For the sequence “ATACTCATCTTTTTCAGTGGG (double strand) [TALEN 103104 site]”, the activity in series [18] is 44.9 % indel.

The values above are taken from patent US20220175839.
